Reference: patent US20170298331

Key:
[1] = system: TALEN TN3 (Artificial); test: cell_activity; conditions: pair TN3/8, 17 bp spacer, preceded by 5'-T; Surveyor assay in DMD myoblasts (up to 12.7% and 6.8% in two lines)
[2] = system: TALEN TN8 (Artificial); test: cell_activity; conditions: pair TN3/8, 17 bp spacer, preceded by 5'-T; Surveyor assay in DMD myoblasts (up to 12.7% and 6.8% in two lines)

Sequence | activity (% modified alleles) [1] | activity (% modified alleles) [2]
AGCTCCTACTCAGACT (double strand) [TN3 half-site, DMD exon 51] | 12.7 | 
CCTTAGTAACCACAGGT (double strand) [TN8 half-site, DMD exon 51] |  | 12.7
